Measured values published in patent publication US20150175678A1 (BETH ISRAEL DEACONESS MEDICAL CENTER, published 2015).

Tests used:
[1] = target: HIV-1 67970 (Clade B, X4) envelope glycoprotein gp120 (HIV-1, isolate 67970); experiment: cell-based or functional assay
[2] = target: HIV-1 JR-FL (Clade B, R5) envelope glycoprotein gp120 (HIV-1, isolate JR-FL); experiment: cell-based or functional assay

B1: F425-A1g8 IgA1 antibody variant expressed from CHO-K1 cells (antibody)
heavy: QEQLVESGGGVVQPGRSLRLSCEASGFIFSAFVLHWVRQAPGKGLEWVAVVWYDGNSKYYADSVKGRFTISRDTSQNTLHLQMDSLRPEDTAVYYCAREWVADDDTFDGFDVWGQGTMVTVSSASLTSPKVFPLSLCSTQPDGNVVIACLVQGFFPQEPLSVTWSESGQGVTARNFPPSQDASGDLYTTSSQLTLPATQCLAGKSVTCHVKHYTNPSQDVTVPCPVPSTPPTPSPSTPPTPSPSCCHPRLSLHRPALEDLLLGSEANLTCTLTGLRDASGVTFTWTPSSGKSAVQGPPDRDLCGCYSVSSVLSGCAEPWNHGKTFTCTAAYPESKTPLTATLSKSGNTFRPEVHLLPPPSEELALNELVTLTCLARGFSPKDVLVRWLQGSQELPREKYLTWASRQEPSQGTTTFAVTSILRVAAEDWKKGDTFSCMVGHEALPLAFTQKTIDRLAGKPTHVNVSVVMAEVDGTCY
light: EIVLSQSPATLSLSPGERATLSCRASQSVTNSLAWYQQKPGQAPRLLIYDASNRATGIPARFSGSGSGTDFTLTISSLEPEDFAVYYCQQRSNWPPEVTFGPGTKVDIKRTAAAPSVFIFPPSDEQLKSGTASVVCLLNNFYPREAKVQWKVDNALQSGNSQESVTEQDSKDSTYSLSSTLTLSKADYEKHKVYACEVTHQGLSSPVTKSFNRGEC
Neutralization of HIV-1, IC50 (TZM-bl cells, beta-galactosidase) [1]: 23.3 µg/mL | Neutralization of HIV-1, IC50 (TZM-bl cells, beta-galactosidase) [2]: 1.73 µg/mL
